Key:
Conditions in all cases: remark: other sources report otherwise
[1] = biological target: T1, Native pentameric human C-reactive protein (Scripps) (human), P02741; experiment: SEC; HiLoad 16/60 Superdex 200 pg, elution buffer B (50 mM tris, 150 mM NaCl, pH 7.2), 0.5 ml/min; pCRP after storage in 20 mM tris, 280 mM NaCl, 1 mM EDTA with 2, 2.5, 3 or 4 M urea at 4°C, 10 weeks
T1 chain: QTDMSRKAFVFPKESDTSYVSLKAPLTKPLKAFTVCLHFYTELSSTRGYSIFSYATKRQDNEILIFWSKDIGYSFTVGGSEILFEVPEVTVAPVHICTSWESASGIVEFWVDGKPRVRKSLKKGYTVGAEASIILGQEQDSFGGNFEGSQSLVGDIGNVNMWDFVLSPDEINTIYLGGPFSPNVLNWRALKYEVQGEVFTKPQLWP

[2] = biological target: T2, Commercially sourced native C-reactive protein (Binding Site) (human), P02741; experiment: SEC; size exclusion FPLC (recalibrated after a change of column), 0.5 ml/min; 500 μg and 100 μg of PCho affinity purified CRP loaded; fractions at the mCRP position tested by ELISA
T2 chain: T1 chain

[3] = biological target: T3, C-reactive protein purified from human serum of patients with raised CRP levels (>100 mg/L) (human (endogenous in patient serum)), P02741; experiment: SEC; HiLoad 16/60 Superdex 200 pg, elution with buffer A (5 mM CaCl2), 0.5 ml/min; serum CRP first purified by PCho affinity chromatography and eluted with EDTA
T3 chain: T1 chain

B1: Native pentameric human C-reactive protein (Scripps), P02741 19-224 (natural protein)
chain: T1 chain
stoichiometry N [1]: 5

B2: Commercially sourced native C-reactive protein (Binding Site), P02741 19-224 (natural protein)
chain: T1 chain
stoichiometry N [2]: 5

B3: C-reactive protein purified from human serum of patients with raised CRP levels (>100 mg/L), P02741 19-224 (natural protein)
chain: T1 chain
stoichiometry N [3]: 5

Reference: article PMC7010908
